Source: US20250188194A1, “Method of treatment” (Nucleus Therapeutics Pty Ltd, priority 2021, published 2025)
Several values for one entry are separate records, joined by “and”; a condition that tells them apart may be missing. Equal values may be shown once.

Tests used:
[1] = test system: differentiated PLB-985 cells; assay: Visualization of chromatin decondensation by DAPI stain after PMA stimulation; format: cell-based, human; conditions: one hour pre-treatment with 10 μM DX1, 300 nM PMA two hours; control cells 67.5%; N=2
Method: FIGS. 2A-2D. DAPI and SYTOX™ Green stains support the conclusion that DX1inhibits chromatin decondensation and DNA release by differentiated PLB-985 cells stimulated with PMA. (2A) Chromatin decondensation in differentiated PLB-985 cells after stimulation with PMA±a one hour pre-treatment with 10 μM DX1 was visualized by DAPI stain. Left panel: Control cells with decondensed DAPI stain after PMA stimulation. Right panel: DX1-treated cells retaining condensed DAPI signal after PMA stimulation. Bar: 25 μm. (2B) Quantification of the percentage of differentiated PLB-985 cells with decondensed DAPI stain after PMA stimulation. […] (2C) DNA release by differentiated PLB-985 cells after stimulation with PMA±a one hour pre-treatment with 10 μM DX1 was visualized by addition of the impermeant DNA stain SYTOX™ Green. Representative images are shown. Bar: 25 μm. (2D) SYTOX™ Green signal in wells containing differentiated PLB-985 cells stimulated with PMA±a one hour pre-treatment with 10 […] was quantified by plate reader. […]
Differentiated PLB-985 cells were plated on Shi-fix coverslips in 12-well plates at 5×10^4 cells/well. […] Cells were fixed with ethanol followed by addition of DAPI and visualization of chromatin decondensation by fluorescence microscopy (EVOS FL, Thermo Fisher Scientific).

[2] = test system: differentiated PLB-985 cells; assay: H3Cit western blot; format: cell-based, human; conditions: 10 μM DX1 one hour, then PMA; PMA control 0.64±0.06; N=3
Method: FIGS. 5A-5B. […] Differentiated PLB-985 cells were pre-treated with control media or media containing 10 μM DX1 for one hour, followed by stimulation with PMA. Cellular contents were isolated and analyzed by H3Cit western blot. Representative cropped blot is shown in (5A), and quantification of H3Cit band intensity normalized to actin in (5B). […]
Histone citrullination by PAD4 is a key step in NETosis that is targeted by the selective PAD4 inhibitor GSK484. Differentiated PLB-985 cells treated with control or 10 μM DX1 for one hour were stimulated by PMA, and cell contents were isolated and analyzed for H3Cit content by western blot with normalization to actin. […]
Differentiated PLB-985 cells at 8×10^5 cells/well in 12-well plates were incubated with control buffer or buffer containing 10 μM DX1 for one hour and then stimulated by addition of 300 nM PMA for two hours. Cells were isolated by centrifugation, lysed in RIPA buffer, and H3Cit content determined by western blot using anti-H3Cit primary (#AB5103, abcam, Cambridge, MA, USA) and goat anti-rabbit HRP-conjugated secondary antibody at 1:5000 (#AB205718, abcam). H3Cit band intensities normalized to actin loading control were determined by ImageJ (NIH, Bethesda, MD).

B1: DX1: 3E10 derivative, a di-scFv having the sequence SEQ ID NO: 38; nuclear-penetrating anti-DNA binding protein (protein)
scFv: DIQMTQSPSSLSASLGDRATITCRASKTVSTSSYSYMHWYQQKPGQPPKLLIKYASYLESGVPSRFSGSGSGTDFTLTISSLQPEDAATYYCQHSREFPWTFGGGTKVEIKTVDAAPGGGGSGGGGSGGGGSEVQLVESGGGLVQPGGSLRLSCAASGFTFSNYGMHWVRQAPGKGLEWVSYISSGSSTIYYADSVKGRFTISRDNAKNSLYLQMNSLRAEDTAVYYCARRGLLLDYWGQGTTVTVSSASTKGPSVFPLAPLESTGSDIQMTQSPSSLSASLGDRATITCRASKTVSTSSYSYMHWYQQKPGQPPKLLIKYASYLESGVPSRFSGSGSGTDFTLTISSLQPEDAATYYCQHSREFPWTFGGGTKVEIKTVDAAPGGGGSGGGGSGGGGSEVQLVESGGGLVQPGGSLRLSCAASGFTFSNYGMHWVRQAPGKGLEWVSYISSGSSTIYYADSVKGRFTISRDNAKNSLYLQMNSLRAEDTAVYYCARRGLLLDYWGQGTTVTVSS
modifications: DX1 sequence
percentage of cells with decondensed DAPI stain after PMA stimulation [1]: 37.8±2.7% and 37.8±3.8% | intracellular H3Cit content normalized to actin, relative to unstimulated cells [2]: 1.46±0.20
